Data: US20260242478A1 (published 2026)
Where no end group is shown, it is not given here.

Legend:
PSMA Fab (006 PSMA Fab) [1] = biological target: T1, PSMA Fab (006 PSMA Fab) (biotinylated (site not stated)); assay: phage ELISA: clonal phage on biotinylated PSMA Fab captured on neutravidin plate, wells pre-incubated with PSMA antigen as competitor, anti-M13 HRP detection
T1 construct: Captured as biotinylated PSMA Fab on neutravidin coated plates in the phage ELISA; also called Anti-PSMA Fab; anti-PSMA Fab

PSMA Fab (006 PSMA Fab) [2] = biological target: T1, PSMA Fab (006 PSMA Fab); assay: phage ELISA: clonal phage on biotinylated PSMA Fab captured on neutravidin plate, anti-M13 HRP detection
Protocol: (§1) Clonal phage were harvested as crude supernatants and screened via standard ELISAs. […] Prior to the addition of clonal phage. wells were incubated with blocking buffer and PSMA antigen or blocking buffer alone. Without washing or aspirating, clonal phage supernatants were then added to the wells and incubated for a short time. Wells were then washed followed by detection of bound phage using a horse radish conjugated anti-M13 antibody.

PSMA Fab [3] = biological target: T2, PSMA Fab; assay: clonal phage ELISA; biotinylated PSMA Fab on neutravidin plate, wells pre-incubated with PSMA antigen as competitor; anti-M13 HRP detection;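 note: crude clonal phage supernatants added to antigen-treated wells without a wash, incubated briefly, then bound phage read out via horse radish–conjugated anti-M13 antibody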
T2 construct: also called Anti-PSMA Fab; 006 PSMA Fab
Protocol: as §1

PSMA Fab [4] = biological target: T2, PSMA Fab; assay: clonal phage ELISA; biotinylated PSMA Fab on neutravidin plate, blocking buffer alone; anti-M13 HRP detection;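 note: crude clonal phage supernatants added without washing to wells pretreated with blocking buffer with or without PSMA antigen, short incubation, then washed before detecting bound phage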
Protocol: as §1

PSMA Fab (006 PSMA Fab) [5] = biological target: T3, PSMA Fab (006 PSMA Fab) (biotinylated (site not stated)); assay: clonal phage supernatant on captured PSMA Fab pre-incubated with the competitor PSMA antigen, anti-M13-HRP detection
T3 construct: Biotinylated PSMA Fab captured on neutravidin coated plates in the phage ELISA; also called Anti-PSMA Fab; anti-PSMA Fab

PSMA Fab (006 PSMA Fab) [6] = biological target: T3, PSMA Fab (006 PSMA Fab); assay: clonal phage supernatant on biotinylated PSMA Fab captured on neutravidin plate, anti-M13-HRP detection;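 note: before phage were added, wells received PSMA antigen in blocking buffer or blocking buffer alone, with no wash in between, followed by a short phage incubation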
Protocol: as §1

PSMA Fab (006 PSMA Fab) [7] = biological target: T4, PSMA Fab (006 PSMA Fab) (biotinylated (site not stated)); assay: clonal phage ELISA on biotinylated PSMA Fab captured on neutravidin plate, blocking buffer alone; anti-M13 HRP detection
T4 construct: also called Anti-PSMA Fab; anti-PSMA Fab

Binder	Phage binding ELISA signal, Anti-PSMA Fab in presence of PSMA (PSMA Fab (006 PSMA Fab) [1])	Phage binding ELISA signal, Anti-PSMA Fab (PSMA Fab (006 PSMA Fab) [2])	Phage binding ELISA signal, Anti-PSMA Fab (PSMA Fab (006 PSMA Fab) [7])	also measured
TLFACVPAWMCDGF [Phage-3726]	0.0757	1.41	–	–
EAKVCKPAWMCDGL [Phage-3754]	–	–	–	Phage binding ELISA signal, Anti-PSMA Fab with PSMA antigen (PSMA Fab [3]): 0.077; Phage binding ELISA signal, Anti-PSMA Fab (PSMA Fab [4]): 1.37
AYMKCSPAWMCEGF [Phage-3722]	0.0811	1.41	–	–
GENWCVPQWMCDGF [Phage-3721]	0.139	1.41	–	–
GQAACVPSWMCSGF (cysteine pairing not given here; also: displayed on phage as pIII fusion, not shown: pIII filament protein of the bacteriophage) [Phage-3714]	–	–	–	Phage binding ELISA signal, Anti-PSMA Fab in presence of PSMA antigen (PSMA Fab (006 PSMA Fab) [5]): 0.0867; Phage binding ELISA signal, Anti-PSMA Fab (PSMA Fab (006 PSMA Fab) [6]): 1.42
GNIWCEPAWMCVGF (peptide, not shown: large carriers, Clonal phage of the peptide-180 library, tested as crude phage supernatant) [Phage-3771]	–	–	1.34	–
IDRHCVPRWMCDGL [Phage-3727]	0.0751	1.41	–	–
IERMCMPPWMCSAL [Phage-3716]	0.0662	1.42	–	–
GSPFCVPLWMCEGF (peptide, not shown: large carriers, Clonal phage of the peptide-180 library, tested as crude phage supernatant) [Phage-3769]	–	–	1.35	–
DVGMCRPKWMCDGF (peptide, not shown: large carriers, Clonal phage of the peptide-180 library, tested as crude phage supernatant) [Phage-3759]	–	–	1.36	–
DQRECIPHWMCAGF (peptide, not shown: large carriers, cysteine pairing not given here; also: displayed on phage as pIII fusion, Clonal phage of the peptide-180 library, tested as crude phage supernatant) [Phage-3763]	–	–	1.36	–
TTPMCVPAWMCSGM (peptide, not shown: large carriers, Clonal phage of the peptide-180 library, tested as crude phage supernatant) [Phage-3770]	–	–	1.34	–
LVHLCKPPWMCHGF (peptide, not shown: large carriers, Clonal phage of the peptide-180 library, tested as crude phage supernatant) [Phage-3762]	–	–	1.36	–
MEWHCKPKWMCEGF [Phage-3717]	0.0772	1.42	–	–
YHKECIPPWMCMGF [Phage-3756]	–	–	–	Phage binding ELISA signal, Anti-PSMA Fab with PSMA antigen (PSMA Fab [3]): 0.0922; Phage binding ELISA signal, Anti-PSMA Fab (PSMA Fab [4]): 1.37
QSVMCRPAWMCEGF [Phage-3748]	–	–	–	Phage binding ELISA signal, Anti-PSMA Fab with PSMA antigen (PSMA Fab [3]): 0.0813; Phage binding ELISA signal, Anti-PSMA Fab (PSMA Fab [4]): 1.38
VLPSCIPSWMCNGF (peptide, not shown: large carriers, Clonal phage of the peptide-180 library, tested as crude phage supernatant) [Phage-3760]	–	–	1.36	–
WIKECVPDWMCSGF [Phage-3745]	–	–	–	Phage binding ELISA signal, Anti-PSMA Fab with PSMA antigen (PSMA Fab [3]): 0.0803; Phage binding ELISA signal, Anti-PSMA Fab (PSMA Fab [4]): 1.38
LYGVCVPEWMCHGF (peptide, not shown: large carriers, Clonal phage of the peptide-180 library, tested as crude phage supernatant) [Phage-3766]	–	–	1.35	–
PYAVCVPKWMCSGF [Phage-3723]	0.0805	1.41	–	–
DVLMCTPRWMCDGF [Phage-3725]	0.0822	1.41	–	–
EQPACVPKWMCIGF [Phage-3750]	–	–	–	Phage binding ELISA signal, Anti-PSMA Fab with PSMA antigen (PSMA Fab [3]): 0.0893; Phage binding ELISA signal, Anti-PSMA Fab (PSMA Fab [4]): 1.38
